Experiments:
[1] = target: 30-kDa subunit of the cellular cleavage and polyadenylation specificity factor (CPSF30), human (human) (UniProt O95639); assay: cell-based or functional assay
[2] = target: NS1A protein of the influenza A/PR8/34 (PR8) virus strain (influenza A virus A/PR8/34, UniProt P03496 1-230); assay: not described
NS1A protein of the influenza A/PR8/34 (PR8) virus strain, sequence (P03496 whole entry): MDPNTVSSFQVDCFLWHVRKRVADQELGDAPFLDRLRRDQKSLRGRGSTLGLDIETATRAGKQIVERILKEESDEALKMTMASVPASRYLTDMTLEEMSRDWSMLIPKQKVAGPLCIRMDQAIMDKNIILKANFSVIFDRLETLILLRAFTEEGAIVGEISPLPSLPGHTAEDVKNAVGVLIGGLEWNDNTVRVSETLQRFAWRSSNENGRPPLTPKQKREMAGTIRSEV

30-kDa subunit of the cellular cleavage and polyadenylation specificity factor (CPSF30), human (human), sequence (O95639 whole entry): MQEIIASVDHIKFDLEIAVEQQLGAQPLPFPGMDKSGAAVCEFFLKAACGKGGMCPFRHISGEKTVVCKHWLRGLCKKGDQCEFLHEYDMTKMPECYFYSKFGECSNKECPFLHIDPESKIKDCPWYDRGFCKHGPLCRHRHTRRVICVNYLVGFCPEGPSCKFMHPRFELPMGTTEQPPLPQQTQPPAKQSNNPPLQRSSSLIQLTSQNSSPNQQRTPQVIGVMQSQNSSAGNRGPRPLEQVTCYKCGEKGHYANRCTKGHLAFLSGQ

Question: Which rate of replication and virus yield during multiple cycle growth [1] does the source give for “HK97 NS1A protein with I at position 106 changed to M and L at 103 changed to F” here?
Answer: Its rate of replication and virus yield during multiple cycle growth is 100 fold.

B1: F2F3 fragment of CPSF30 (construct not stated) (other)
chain: SGEKTVVCKHWLRGLCKKGDQCEFLHEYDMTKMPECYFYSKFGECSNKECPFLHIDPESKI
Question: Does B1 bind [2]?
Answer: Result: no binding

From US20140308307A1 (University of Texas, published 2014)
